Data set [1] deals with CC(C)[C@@H]1NC(=O)[C@H](C)OC(=O)[C@@H](C(C)C)NC(=O)[C@@H](C(C)C)OC(=O)[C@H](C(C)C)NC(=O)[C@H](C)OC(=O)[C@@H](C(C)C)NC(=O)[C@@H](C(C)C)OC(=O)[C@H](C(C)C)NC(=O)[C@H](C)OC(=O)[C@@H](C(C)C)NC(=O)[C@@H](C(C)C)OC1=O. In words: (§1) TP_TRANSPORTER: ATP hydrolysis in reconstituted proteoliposomes. The data set is classed as functional, subcellular.
Data set [2] relates to CC[C@H]1CN2CCc3cc(OC)c(OC)cc3[C@@H]2C[C@@H]1C[C@H]1NCCc2cc(OC)c(OC)cc21. The description is as §1. It counts as functional, subcellular.

Turning to “ATP-dependent translocase ABCB1 (Homo sapiens)”, the Michaelis-Menten constant (Km) was determined as 1 µM in data set [1] and 6 µM in data set [2].

These data come from ChEMBL document CHEMBL2074001, “Competition of hydrophobic peptides, cytotoxic drugs, and chemosensitizers on a common P-glycoprotein pharmacophore as revealed by its ATPase activity” (J Biol Chem, 1996).
